Measured values: patent US20130059772A1, “Use of Repeat Sequence Protein Polymers in Personal Care Compositions” (DANISCO US INC., priority 2003, published 2013)
“And” between values parts separate entries of the source, which are not always exact repeats. Equal values may be shown once.

Columns and labels:
[1] = Water solubility of SELP47K films; assay type: physicochemical
From the text: The coating appeared to be comprised of densely packed intertwining strands. […] Short, single/double strands of material were found in areas where the coating appeared to be less concentrated. Individual strands of material could be seen in the less concentrated, gray areas on the wafer. SEM analysis of the films provide the basis of water-solubility of SELP47K films.

facial skin [2] = assay: Skin efficacy study: Cutometer Uv (viscoelasticity); assay type: in vivo, human; details: 5% aqueous solution applied once to face; 30 Minutes Post; baseline mean 0.09
From the text: (§1) Eleven impaneled subjects (age 35-70 years) showing clear signs of facial skin aging were provided with a non-moisturizing soap, (AVEENO®), one week prior to the study and were instructed to use the provided soap to wash the face and were required to refrain from excessive UV exposure. After a seven-day conditioning phase, subjects were acclimated to the ambient temperature and humidity for thirty minutes. One side of the face of each subject was designated as the measurement side by random selection by computer. After 30-minute acclimation period, baseline digital photographs were taken, and instrumental measurements, skin replica samples and visual evaluations were made. Photographs were taken, with a Canfield Scientific Camera, of the full face, the periorbital area, and the temporal side of eye. Chromameter (Model CR300, Minolta) measurements were taken from the periorbital area directly under the eye (Chardon et al., Int. J. Cosmet. Sci., 13:191-208 [1991]). Silflo replicas (CuDerm Corporation, Dallas, Tx) were made from the periorbital area adjacent to the temporal side of the eye (Grove et al., J. Am. Acad. Dermatol., 21:631-637 [1998]; and Sun et al 1997 IFSCC Conference, Mexico). Cutometer (SEM575, Courage and Khazaka, Germany) measurements were taken at the periorbital area at the upper portion of cheekbone. All measurements were performed in triplicate. […]

[3] = Tensile mechanical properties of films (INSTRON Model 5564); assay type: physicochemical
Method: In this Example, experiments performed to determine tensile mechanical properties of SELP47K (Example 1 and 2) are described. Samples of SELP47K were prepared by freeze-drying purified SELP47K solution. The subsequent powder was re-dissolved in water to a solids concentration of approximately 5, 10 or 20%. These solutions were then mixed with plasticizers to an effective concentration of 1-3%. Plasticizers included in this study were polyethylene glycol 200, glycerin, and triethanolamine. Eleven milliliters of these solutions were poured into a large (6 inch square) polyethylene weigh boats and the solutions were allowed to dry either in an oven at 37° C. or room temperature for 1 to 3 days. Subsequent films were successfully peeled from the weigh boat with a spatula without any damage to the polymer film.
The films were then cut into tensile specimens using a very sharp fabric cutting wheel. The specimens were approximately 6 cm long and 2.5 cm wide. The gauge length for these samples (length of sample between tensile testing clamps) was set to 3 cm and the thickness of the sample was measured at 5 points along the gauge length using a digital thickness coating instrument. The thickness of the samples was recorded as the average of the 5 points and varied from 46.4 to 188.2 microns. Both the sample width and sample thickness were entered into an Instron software program (Merlin) to enable it to calculate the tensile strength and tensile modulus.
The samples were loaded into the jaws of an INSTRON® Model 5564 apparatus making sure the gauge length was always set to 3 cm and that the sample was not under any static load or stress. […] The results of the stress-strain measurements can be seen for four of the samples in FIG. 1. The elongation % of SELP47K was determined to be 8.4 for 20% SELP47K solution film made at room temperature (RM). The tensile strength was determined to be 65.9 megapascals (MPa), and the tensile modulus was determined to be 1716.50 MPa. The results of plastisizer-SELP47K films reveal strong correlation between concentration and mechanical properties measured. For 3% PEG200 containing SELP47K, the films elongation % reached 541.

facial skin [4] = assay: Skin efficacy study: image analysis of Silflo replicas (fine line factors); assay type: in vivo, human
From the text: as §1, with “([…]®),” for “(AVEENO®),”, “1997 IFSCC” left out, “[…] Specifically, the fine line factors, which approximate the number and/or length of facial lines in the 10 evaluated bands of skin replica,” for “Cutometer (SEM575, Courage and Khazaka, Germany) measurements”, “measured.” for “taken at the periorbital area at the upper portion of cheekbone. All measurements were performed in triplicate.”

[5] = Example 1 Material [GC2596-26-A], film from 05% sol., 37 C.
[6] = Example 1 Material [GC2596-26-A], film from 05% sol., RM
[7] = Example 1 Material [GC2596-26-A], film from 10% sol., 37 C.
[8] = Example 1 Material [GC2596-26-A], film from 10% sol., RM
[9] = Example 1 Material [GC2596-26-A], film from 20% sol., 37 C.
[10] = Example 1 Material [GC2596-26-A], film from 20% sol., RM
[11] = Example 2 Material [GC2596-26-B], film from 10% sol., 37 C.

Substance: SELP47K: silk-elastin repeat sequence protein copolymer, head-[(GAGAGS)2(GVGVP)3GKGVP(GVGP)4(GAGAGS)2]13-tail (SEQ ID NO:19), 886 amino acids
- water solubility of film ([1]; film made out of 10% SELP47K solution): water-soluble
- water solubility of film ([1]; film made out of 20% SELP47K solution): water insoluble
- Cutometer Uv Score, Mean (facial skin [2]): 0.106
- Tensile Strain [3, 5]: 2.6%
- Tensile Strength [3, 5]: 19.83 MPA
- Tensile Strain [3, 6]: 2.4%
- Tensile Strength [3, 6]: 21.43 MPA
- Tensile Strain [3, 7]: 3.6%
- Tensile Strength [3, 7]: 62.06 MPA
- Tensile Strain [3, 8]: 3.5%
- Tensile Strength [3, 8]: 62.98 MPA
- Tensile Strain [3, 9]: 8.6%
- Tensile Strength [3, 9]: 74.14 MPA
- Tensile Strain (elongation %) [3, 10]: 8.4%
- Tensile Strength [3, 10]: 65.9 MPA and 65.90 MPA
- Tensile Strain [3, 11]: 6.98%
- Tensile Strength [3, 11]: 39.34 MPA
- tensile modulus ([3]; film from 20% SELP47K solution made at room temperature (RM)): 1716.50 MPa
- Fine Line Factors, Mean (facial skin [4]; 5% aqueous solution applied once to face, 30 Minutes Post, baseline mean 284): 246
- decrease in fine line factors (facial skin [4]; 5% aqueous solution, 30 minutes after application vs baseline, p=0.05): 13%
